± gives the uncertainty stated by the source.
Test: self-splicing fitness, log relative to wild type (ln ratio); higher = more splicing; Tetrahymena group I intron in knt gene, E. coli kanamycin selection, DiMSum; sequences stand for … in CUCUCU…GGAGGGAAAAGUUAUCAGGCAUGCACCUGGUAGCUAGUCUUUAAACCAAUAGAUUGCAUCGGUUUAAAAGGCAAGACCGUCAAAUUGCGGGAAAGGGGUCAACAGCCGUUCAGUACCAAGUCUCAGGGGAAACUUUGAGAUGGCCUUGCAAAGGGUAUGGUAAUAAGCUGACGGACAUGGUCCUAACCACGCAGCCAAGUCCUAAGUCAACAGAUCUUCUGUUGAUAUGGAUGCAGUUCACAGACUAAAUGUCGGUCGGGGAAGAUGUAUUCUUCUCAUAAGAUAUAGUCGGACCUCUCCUUAAUGGGAGCUAGCGGAUGAAGUGAUGCAACACUGGAGCCGCUGGGAACUAAUUUGUAUGCGAAAGUAUAUUGAUUAGUUUUGGAGUACUCGUGGUCG
Outline: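 DiMSum derived fitness as the error-weighted combination of fold changes across replicates, kanamycin versus no kanamycin, normalised to wild type. E. coli BL21(DE3) held the library, which randomised all eight P1ex-region intron nucleotides within the knt kanamycin-resistance gene on pET-22b(+). Six replicate transformations grew overnight at 37°C or 30°C on LB agar with or without 25 μg/mL kanamycin, also containing 100 μg/mL carbenicillin, 50 μM IPTG and 0.2% rhamnose, and pooled colonies were amplicon-sequenced on an Illumina HiSeq 2500.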

Row | Sequence | self-splicing fitness (ln) (30 °C) | self-splicing fitness (ln) (37 °C)
1 | ACACAGCAAUAUUACGAAAC | -3.02 ± 0.23 | -1.82 ± 0.22
2 | ACACAGCAAUAUUACGACUU | -0.131 ± 0.043 | 0.0165 ± 0.056
3 | ACACAGCAAUAUUACGAGAA | -3.53 ± 0.37 | -2.54 ± 0.24
4 | ACACAGCAAUAUUACGAUGA | -0.664 ± 0.048 | -0.444 ± 0.057
5 | ACACAGCAAUAUUACGAUUG | -2.22 ± 0.084 | -0.711 ± 0.09
6 | ACACAGCAAUAUUACGCAAA | -3.2 ± 0.11 | -1.85 ± 0.092
7 | ACACAGCAAUAUUACGCCAA | -2.36 ± 0.11 | -2.54 ± 0.14
8 | ACACAGCAAUAUUACGCCAU | -3.18 ± 0.21 | -1.85 ± 0.15
9 | ACACAGCAAUAUUACGCCGG | -1.36 ± 0.09 | -0.466 ± 0.11
10 | ACACAGCAAUAUUACGCGCA | -0.103 ± 0.064 | 0.225 ± 0.079
11 | ACACAGCAAUAUUACGCUCC | -1.47 ± 0.078 | -0.566 ± 0.1
12 | ACACAGCAAUAUUACGCUUU | -2.75 ± 0.14 | -1.51 ± 0.098
13 | ACACAGCAAUAUUACGGCAC | -1.6 ± 0.066 | -0.725 ± 0.084
14 | ACACAGCAAUAUUACGGGUC | -4.34 ± 0.21 | -2.17 ± 0.13
15 | ACACAGCAAUAUUACGUAAG | -2.06 ± 0.062 | -0.736 ± 0.069
16 | ACACAGCAAUAUUACGUAGG | -2.48 ± 0.087 | -1.64 ± 0.09
17 | ACACAGCAAUAUUACGUGUU | -3.16 ± 0.073 | -3.62 ± 0.16
18 | ACACAGCAAUAUUACGUUAG | -3.46 ± 0.094 | -2.44 ± 0.1
19 | ACACAGCAAUAUUACGUUGG | -3 ± 0.089 | -1.2 ± 0.081
20 | ACACAGCAAUAUUACGUUGU | -2.31 ± 0.09 | -2.6 ± 0.14
21 | ACAGAGCAAUAUUACGAACC | – | -1.67 ± 0.49
22 | ACAGAGCAAUAUUACGAAUA | -3.45 ± 0.32 | -2.2 ± 0.35
23 | ACAGAGCAAUAUUACGACAG | -3.72 ± 0.31 | -1.95 ± 0.2
24 | ACAGAGCAAUAUUACGAUUA | -3.25 ± 0.23 | -2.38 ± 0.26

From the supplement of paper PMC7877785
